Our source for the EC50 values is patent US20120282271A1 (Genentech, published 2012).

This assay has as its target T1, Ron (Sema IPT1)-IgG fusion protein (human, UniProt Q04912 25-683, limits assumed).
T1 construct: domain: Sema IPT1; Captured on the chip or plate through an anti-human IgG (Fc specific) antibody; also called Ron-Fc; human Ron; not shown: IgG (Fc) portion, captured by rabbit anti-human IgG Fc antibody
T1 sequence (looked up): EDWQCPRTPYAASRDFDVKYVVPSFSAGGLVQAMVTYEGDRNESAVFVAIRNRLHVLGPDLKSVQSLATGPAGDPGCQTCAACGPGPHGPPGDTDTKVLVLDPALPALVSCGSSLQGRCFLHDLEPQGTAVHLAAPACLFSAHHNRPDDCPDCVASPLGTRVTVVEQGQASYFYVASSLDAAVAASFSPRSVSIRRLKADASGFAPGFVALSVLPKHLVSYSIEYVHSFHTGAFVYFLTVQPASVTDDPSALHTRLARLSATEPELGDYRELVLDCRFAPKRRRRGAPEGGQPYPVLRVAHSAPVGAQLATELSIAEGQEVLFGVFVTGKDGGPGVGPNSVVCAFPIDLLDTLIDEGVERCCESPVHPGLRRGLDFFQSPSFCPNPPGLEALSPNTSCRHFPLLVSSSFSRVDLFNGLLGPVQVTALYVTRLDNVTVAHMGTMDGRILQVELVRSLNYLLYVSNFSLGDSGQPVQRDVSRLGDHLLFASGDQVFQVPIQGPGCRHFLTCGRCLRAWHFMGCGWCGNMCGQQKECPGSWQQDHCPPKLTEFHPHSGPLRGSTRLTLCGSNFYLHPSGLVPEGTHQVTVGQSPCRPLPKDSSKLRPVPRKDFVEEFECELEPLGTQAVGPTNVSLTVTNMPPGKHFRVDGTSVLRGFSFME
Kind of assay: ELISA, Ron (Sema IPT1)-IgG captured on an anti-human IgG Fc coated plate, His tagged MSP detected with anti-His-HRP, four parameter fit; ELISA, not SPR; printed only as 'MSP'. The method, then: To determine binding affinity of hepsin-activated MSP to human Ron, surface plasmon resonance measurements on a BIAcore™-3000 instrument (GE Health Care, NJ) were performed. Rabbit anti-human IgG were chemically immobilized (amine coupling) on CM5 biosensor chips and the Ron (Sema IPT1)-IgG fusion protein was captured to give approximately 250 response units (RU). For kinetics measurements, different concentration of either hepsin-activated MSP or a commercially available MSP (R&D systems) were injected in HBS-P buffer at 25° C. with a flow rate of 30 μl/min. Association rates (kₒₙ) and dissociation rates (koff) were obtained by using a simple one-to-one Langmuir binding model (BIA-Evaluation) and the equilibrium dissociation constants (KD) were calculated (koff/kₒₙ). […] Bound MSP was detected using anti-His-HRP (Qiagen, Valencia, Calif.) followed by addition of TMB/H₂O₂ substrate (KPL, Gaithersburg, Md.). The reaction was stopped with 1M H₃PO₄ and the A₄₅₀ was measured on a Molecular Devices (Sunnyvale, Calif.) SpectraMax Plus³⁸⁴ microplate reader. The effective concentration to give half-maximal binding (EC₅₀) was determined by a four parameter fit using Kaleidagraph (Synergy Software, Reading, Pa.). […]

B1: hepsin-activated MSP (recombinant human macrophage-stimulating protein, C672A, cleaved by hepsin at Arg483-Val484) (ligand)
chain 1: QRSPLNDFQVLRGTELQHLLHAVVPGPWQEDVADAEECAGRCGPLMDCRAFHYNVSSHGCQLLPWTQHSPHTRLRRSGRCDLFQKKDYVRTCIMNNGVGYRGTMATTVGGLPCQAWSHKFPNDHKYTPTLRNGLEENFCRNPDGDPGGPWCYTTDPAVRFQSCGIKSCREAACVWCNGEEYRGAVDRTESGRECQRWDLQHPHQHPFEPGKFLDQGLDDNYCRNPDGSERPWCYTTDPQIEREFCDLPRCGSEAQPRQEATTVSCFRGKGEGYRGTANTTTAGVPCQRWDAQIPHQHRFTPEKYACKDLRENFCRNPDGSEAPWCFTLRPGMRAAFCYQIRRCTDDVRPQDCYHGAGEQYRGTVSKTRKGVQCQRWSAETPHKPQFTFTSEPHAQLEENFCRNPDGDSHGPWCYTMDPRTPFDYCALRRCADDQPPSILDPPDQVQFEKCGKRVDRLDQRRSKLR
chain 2: VVGGHPGNSPWTVSLRNRQGQHFCGGSLVKEQWILTARQCFSSCHMPLTGYEVWLGTLFQNPQHGEPSLQRVPVAKMVCGPSGSQLVLLKLERSVTLNQRVALICLPPEWYVVPPGTKCEIAGWGETKGTGNDTVLNVALLNVISNQECNIKHRGRVRESEMCTEGLLAPVGACEGDYGGPLACFTHNAWVLEGIIIPNRVCARSRWPAVFTRVSVFVDWIHKVMRLG
notes: Made by treating recombinant pro-MSP (C672A, from CHO cells) with the recombinant hepsin extracellular domain; It is a disulfide-linked α/β heterodimer; also called hepsin-treated pro-MSP
Consider B1, for which the EC50 was 0.519 nM.
